Results on one molecule are retold here after article PMC8839947, “Highly Sensitive RNA-Based Electrochemical Aptasensor for the Determination of C-Reactive Protein Using Carbon Nanofiber-Chitosan Modified Screen-Printed Electrode”.

This data set addresses T1, C-reactive protein (CRP) (UniProt P02741 19-224).
T1 sequence: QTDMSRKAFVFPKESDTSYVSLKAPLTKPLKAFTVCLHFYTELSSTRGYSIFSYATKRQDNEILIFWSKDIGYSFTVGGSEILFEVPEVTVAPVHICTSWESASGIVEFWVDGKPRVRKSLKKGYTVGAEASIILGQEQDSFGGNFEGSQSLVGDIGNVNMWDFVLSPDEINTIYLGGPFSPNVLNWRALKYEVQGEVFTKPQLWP
Briefly: square-wave voltammetry (Langmuir isotherm, MB signal-off electrode); 2 mM CaCl2; 60 min incubation; KL 1.07 pM-1; CRP incubation in 0.1 M Tris pH 7.4, 2 mM CaCl2, 60 min; SWV read-out in PBS (0.1 M, pH 7.4); BSA-blocked electrode; incubation temperature not stated (298 K used in calculations). Particulars: protein: commercial; chain copies: 5; label: methylene blue self-assembled (non-covalent); immobilized via glutaraldehyde on CNFs-chitosan carbon screen-printed electrode.

One may read the Kd as the constant that tells how readily two partners part at equilibrium. Turning to GCCUGUAAGGUGGUCGGUGUGGCGAGUGUGUUAGGAGAGAUUGC (structured_RNA, 5'-NH2-(CH2)6) [CRP RNA aptamer (5'-amino)], the Kd is 0.93 pM.
